One experiment concerns the target human CGRP receptor (human, UniProt Q16602 23-461; O60894 27-148). Kind of experiment: cell-based or functional assay.
For the next experiment, the target named is T1, human PAC1 receptor (human, UniProt P41586 21-468).
T1 sequence: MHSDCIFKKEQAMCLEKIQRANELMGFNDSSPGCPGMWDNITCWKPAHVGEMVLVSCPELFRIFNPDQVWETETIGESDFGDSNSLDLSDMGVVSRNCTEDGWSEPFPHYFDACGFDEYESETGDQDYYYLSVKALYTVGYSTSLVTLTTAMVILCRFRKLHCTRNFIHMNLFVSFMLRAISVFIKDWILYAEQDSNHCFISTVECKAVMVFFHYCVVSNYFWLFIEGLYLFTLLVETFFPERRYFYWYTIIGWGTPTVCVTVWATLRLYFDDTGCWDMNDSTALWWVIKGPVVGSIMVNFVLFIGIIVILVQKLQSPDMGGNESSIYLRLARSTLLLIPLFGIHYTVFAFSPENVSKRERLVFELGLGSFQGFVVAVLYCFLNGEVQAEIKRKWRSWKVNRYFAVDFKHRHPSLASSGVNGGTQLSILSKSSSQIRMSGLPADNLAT
Kind of experiment: cell-based or functional assay.

human CGRP receptor, sequence (Q16602 23-461 limits assumed, chain 1 of 2): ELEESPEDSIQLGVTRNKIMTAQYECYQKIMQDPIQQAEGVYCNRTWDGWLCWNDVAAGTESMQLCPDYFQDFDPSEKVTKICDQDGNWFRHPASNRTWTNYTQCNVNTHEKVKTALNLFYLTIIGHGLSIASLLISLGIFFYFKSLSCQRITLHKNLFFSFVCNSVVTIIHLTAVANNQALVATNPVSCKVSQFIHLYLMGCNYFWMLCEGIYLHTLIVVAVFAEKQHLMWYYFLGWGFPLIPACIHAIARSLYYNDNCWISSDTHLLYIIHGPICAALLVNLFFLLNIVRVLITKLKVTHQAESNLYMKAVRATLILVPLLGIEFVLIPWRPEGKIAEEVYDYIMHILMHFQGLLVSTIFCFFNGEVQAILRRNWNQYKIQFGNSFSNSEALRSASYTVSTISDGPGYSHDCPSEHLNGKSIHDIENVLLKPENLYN
human CGRP receptor, sequence (O60894 27-148 limits assumed, chain 2 of 2): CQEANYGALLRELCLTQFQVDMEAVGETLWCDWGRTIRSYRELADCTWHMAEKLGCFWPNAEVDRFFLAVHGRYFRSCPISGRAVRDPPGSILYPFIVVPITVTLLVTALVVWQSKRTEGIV

B1: iPS:328001 (bispecific antibody, human IgG2, kappa, lambda)
light 1: EIVLTQSPATLSLSPGERATLSCRASQSVGRSLHWYQQKPGQAPRLLIKYASQSLSGIPARFSGSGSGTDFTLTISSLEPEDFAVYYCHQSSRLPFTFGPGTKVDIKRTVAAPSVFIFPPSDEQLKSGTASVVCLLNNFYPREAKVQWKVDNALQSGNSQESVTEQDSKDSTYSLESTLTLSKADYEKHKVYACEVTHQGLSSPVTKSFNRGEC
heavy 1: QVQLVESGGGVVQPGRSLRLSCAASGFTFSRFAMHWVRQAPGKGLEWVAVISYDGGNKYYAESVKGRFTISRDNSKNTLYLQMNSLRAEDTALFYCARGYDVLTGYPDYWGQGTLVTVSSASTKGPSVFPLAPCSRSTSESTAALGCLVKDYFPEPVTVSWNSGALTSGVHTFPAVLQSSGLYSLKSVVTVPSSNFGTQTYTCNVDHKPSNTKVDKTVERKCCVECPPCPAPPVAGPSVFLFPPKPKDTLMISRTPEVTCVVVDVSHEDPEVQFNWYVDGVEVHNAKTKPREEQFNSTFRVVSVLTVVHQDWLNGKEYKCKVSNKGLPAPIEKTISKTKGQPREPQVYTLPPSREEMTKNQVSLTCLVDGFYPSDIAVEWESNGQPENNYDTTPPMLDSDGSFFLYSDLTVDKSRWQQGNVFSCSVMHEALHNHYTQKSLSLSPGK
light 2: QSVLTQPPSVSAAPGQKVTISCSGSSSNIGNNYVSWYQQLPGTAPKLLIYDNNKRPSGIPDRFSGSKSGTSTTLGITGLQTGDEADYYCGTWDSRLSAVVFGGGTKLTVLGQPKANPTVTLFPPSSEELQANKATLVCLISDFYPGAVTVAWKADGSPVKAGVETTKPSKQSNNKYAAKSYLSLTPEQWKSHRSYSCQVTHEGSTVEKTVAPTECS
heavy 2: QVQLVESGGGVVQPGRSLRLSCAASGFTFSSFGMHWVRQAPGKGLEWVAVISFDGSIKYSVDSVKGRFTISRDNSKNTLFLQMNSLRAEDTAVYYCARDRLNYYDSSGYYHYKYYGMAVWGQGTTVTVSSASTKGPSVFPLAPCSRSTSESTAALGCLVKDYFPEPVTVSWNSGALTSGVHTFPAVLQSSGLYSLESVVTVPSSNFGTQTYTCNVDHKPSNTKVDKTVERKCCVECPPCPAPPVAGPSVFLFPPKPKDTLMISRTPEVTCVVVDVSHEDPEVQFNWYVDGVEVHNAKTKPREEQFNSTFRVVSVLTVVHQDWLNGKEYKCKVSNKGLPAPIEKTISKTKGQPREPQVYTLPPSRKKMTKNQVSLTCLVKGFYPSDIAVEWESNGQPENNYKTTPPMLKSDGSFFLYSKLTVDKSRWQQGNVFSCSVMHEALHNHYTQKSLSLSPGK
For B1, in the experiment with human CGRP receptor, the “% inhibition of human CGRPR” value turned out to be 65%. Further, the “% inhibition of human PAC1” value in the experiment with human PAC1 receptor came to 95%.

B2: iPS:327690 (bispecific antibody, human IgG1, kappa, lambda, N297G)
light 1: not shown
heavy 1: not shown
light 2: QSVLTQPPSVSAAPGQKVTISCSGSSSNIGNNYVSWYQQLPGTAPKLLIYDNNKRPSGIPDRFSGSKSGTSTTLGITGLQTGDEADYYCGTWDSRLSAVVFGGGTKLTVLGQPKANPTVTLFPPSSEELQANKATLVCLISDFYPGAVTVAWKADGSPVKAGVETTKPSKQSNNKYAAKSYLSLTPEQWKSHRSYSCQVTHEGSTVEKTVAPTECS
heavy 2: QVQLVESGGGVVQPGRSLRLSCAASGFTFSSFGMHWVRQAPGKGLEWVAVISFDGSIKYSVDSVKGRFTISRDNSKNTLFLQMNSLRAEDTAVYYCARDRLNYYESSGYYHYKYYGMAVWGQGTTVTVSSASTKGPSVFPLAPSSKSTSGGTAALGCLVKDYFPEPVTVSWNSGALTSGVHTFPAVLQSSGLYSLESVVTVPSSSLGTQTYICNVNHKPSNTKVDKKVEPKSCDKTHTCPPCPAPELLGGPSVFLFPPKPKDTLMISRTPEVTCVVVDVSHEDPEVKFNWYVDGVEVHNAKTKPCEEQYGSTYRCVSVLTVLHQDWLNGKEYKCKVSNKALPAPIEKTISKAKGQPREPQVYTLPPSRKEMTKNQVSLTCLVKGFYPSDIAVEWESNGQPENNYKTTPPVLKSDGSFFLYSKLTVDKSRWQQGNVFSCSVMHEALHNHYTQKSLSLSPGK
Take B2: the “% inhibition of human CGRPR” value with human CGRP receptor worked out at 80%. Besides, in the experiment with human PAC1 receptor, the “% inhibition of human PAC1” value was 50%.

B3: iPS:327691 (bispecific antibody, human IgG1, kappa, lambda, N297G)
light 1: DIQLTQSPSFLSASVGDRVTITCRASQSIGRSLHWYQQKPGKAPKLLIKYASQSLSGVPSRFSGSGSGTEFTLTISSLQPEDFATYYCHQSSRLPFTFGPGTKVDIKRTVAAPSVFIFPPSDEQLKSGTASVVCLLNNFYPREAKVQWKVDNALQSGNSQESVTEQDSKDSTYSLESTLTLSKADYEKHKVYACEVTHQGLSSPVTKSFNRGEC
heavy 1: not shown
light 2: QSVLTQPPSVSAAPGQKVTISCSGSSSNIGNNYVSWYQQLPGTAPKLLIYDNNKRPSGIPDRFSGSKSGTSTTLGITGLQTGDEADYYCGTWDSRLSAVVFGGGTKLTVLGQPKANPTVTLFPPSSEELQANKATLVCLISDFYPGAVTVAWKADGSPVKAGVETTKPSKQSNNKYAAKSYLSLTPEQWKSHRSYSCQVTHEGSTVEKTVAPTECS
heavy 2: QVQLVESGGGVVQPGRSLRLSCAASGFTFSSFGMHWVRQAPGKGLEWVAVISFDGSIKYSVDSVKGRFTISRDNSKNTLFLQMNSLRAEDTAVYYCARDRLNYYESSGYYHYKYYGMAVWGQGTTVTVSSASTKGPSVFPLAPSSKSTSGGTAALGCLVKDYFPEPVTVSWNSGALTSGVHTFPAVLQSSGLYSLESVVTVPSSSLGTQTYICNVNHKPSNTKVDKKVEPKSCDKTHTCPPCPAPELLGGPSVFLFPPKPKDTLMISRTPEVTCVVVDVSHEDPEVKFNWYVDGVEVHNAKTKPCEEQYGSTYRCVSVLTVLHQDWLNGKEYKCKVSNKALPAPIEKTISKAKGQPREPQVYTLPPSRKEMTKNQVSLTCLVKGFYPSDIAVEWESNGQPENNYKTTPPVLKSDGSFFLYSKLTVDKSRWQQGNVFSCSVMHEALHNHYTQKSLSLSPGK
For the molecule B3, the “% inhibition of human CGRPR” value with human CGRP receptor was 73%. For the same molecule, the “% inhibition of human PAC1” value with human PAC1 receptor is 25%.

B4: iPS:327693 (bispecific antibody, human IgG1, kappa, lambda, N297G)
light 1: EIVLTQSPATLSLSPGERATLSCRASQSVGRSLHWYQQKPGQAPRLLIKYASQSLSGIPARFSGSGSGTDFTLTISSLEPEDFAVYYCHQSSRLPFTFGPGTKVDIKRTVAAPSVFIFPPSDEQLKSGTASVVCLLNNFYPREAKVQWKVDNALQSGNSQESVTEQDSKDSTYSLESTLTLSKADYEKHKVYACEVTHQGLSSPVTKSFNRGEC
heavy 1: not shown
light 2: QSVLTQPPSVSAAPGQKVTISCSGSSSNIGNNYVSWYQQLPGTAPKLLIYDNNKRPSGIPDRFSGSKSGTSTTLGITGLQTGDEADYYCGTWDSRLSAVVFGGGTKLTVLGQPKANPTVTLFPPSSEELQANKATLVCLISDFYPGAVTVAWKADGSPVKAGVETTKPSKQSNNKYAAKSYLSLTPEQWKSHRSYSCQVTHEGSTVEKTVAPTECS
heavy 2: QVQLVESGGGVVQPGRSLRLSCAASGFTFSSFGMHWVRQAPGKGLEWVAVISFDGSIKYSVDSVKGRFTISRDNSKNTLFLQMNSLRAEDTAVYYCARDRLNYYESSGYYHYKYYGMAVWGQGTTVTVSSASTKGPSVFPLAPSSKSTSGGTAALGCLVKDYFPEPVTVSWNSGALTSGVHTFPAVLQSSGLYSLESVVTVPSSSLGTQTYICNVNHKPSNTKVDKKVEPKSCDKTHTCPPCPAPELLGGPSVFLFPPKPKDTLMISRTPEVTCVVVDVSHEDPEVKFNWYVDGVEVHNAKTKPCEEQYGSTYRCVSVLTVLHQDWLNGKEYKCKVSNKALPAPIEKTISKAKGQPREPQVYTLPPSRKEMTKNQVSLTCLVKGFYPSDIAVEWESNGQPENNYKTTPPVLKSDGSFFLYSKLTVDKSRWQQGNVFSCSVMHEALHNHYTQKSLSLSPGK
As for B4, the “% inhibition of human CGRPR” value in the experiment with human CGRP receptor was determined as 76%. The “% inhibition of human PAC1” value in the experiment with human PAC1 receptor is 82%.

B5: iPS:327688 (bispecific antibody, human IgG1, kappa, N297G)
light 1: EIVLTQSPATLSLSPGERATLSCRASQSVGRSLHWYQQKPGQAPRLLIKYASQSLSGIPARFSGSGSGTDFTLTISSLEPEDFAVYYCHQSSRLPFTFGPGTKVDIKRTVAAPSVFIFPPSDEQLKSGTASVVCLLNNFYPREAKVQWKVDNALQSGNSQESVTEQDSKDSTYSLESTLTLSKADYEKHKVYACEVTHQGLSSPVTKSFNRGEC
heavy 1: not shown
light 2: EIVLTQSPGTLSLSPGERATLSCRASQSVSSGYLTWYQQKPGQAPRLLIYGASSRATGIPDRFSGSGSGTDFTLTISRLEPEDFAVYYCQQYGNSLSRFGQGTKLEIKRTVAAPSVFIFPPSDEQLKSGTASVVCLLNNFYPREAKVQWKVDNALQSGNSQESVTEQDSKDSTYSLKSTLTLSKADYEKHKVYACEVTHQGLSSPVTKSFNRGEC
heavy 2: not shown
Consider B5, for which the “% inhibition of human CGRPR” value with human CGRP receptor is 89%. The “% inhibition of human PAC1” value with human PAC1 receptor came to 103%.

B6: iPS:327687 (bispecific antibody, human IgG1, kappa, N297G)
light 1: DIQLTQSPSFLSASVGDRVTITCRASQSIGRSLHWYQQKPGKAPKLLIKYASQSLSGVPSRFSGSGSGTEFTLTISSLQPEDFATYYCHQSSRLPFTFGPGTKVDIKRTVAAPSVFIFPPSDEQLKSGTASVVCLLNNFYPREAKVQWKVDNALQSGNSQESVTEQDSKDSTYSLESTLTLSKADYEKHKVYACEVTHQGLSSPVTKSFNRGEC
heavy 1: not shown
light 2: EIVLTQSPGTLSLSPGERATLSCRASQSVSSGYLTWYQQKPGQAPRLLIYGASSRATGIPDRFSGSGSGTDFTLTISRLEPEDFAVYYCQQYGNSLSRFGQGTKLEIKRTVAAPSVFIFPPSDEQLKSGTASVVCLLNNFYPREAKVQWKVDNALQSGNSQESVTEQDSKDSTYSLKSTLTLSKADYEKHKVYACEVTHQGLSSPVTKSFNRGEC
heavy 2: not shown
Take B6: in the experiment with human CGRP receptor, the “% inhibition of human CGRPR” value worked out at 91%. The “% inhibition of human PAC1” value in the experiment with human PAC1 receptor came out at 62%.

The values are drawn from patent US20170306033A1 (Amgen, published 2017).
